Source: the domain aggregation screens of Martell et al. (2025)

Assay: soluble fraction after stress (log2 fold change); higher = more stays soluble; pooled small domains, quantitative proteomics
Conditions: stress: 75 degC
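Note: 20 min heating vs room temperature control held 20 min.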

HMPAFGALTLRQRDLVELIAQGLDNSQIAARLGLAEKTVRNHITMIFNKLEMENRSQVIVRARESGFGAVR
soluble fraction (log2): -1.87

HMPAKIIKKSFVYNPIHRDTEYLAQFLQGEGQVSASGDKLVYYGTVEDISRIKSVLQSVDTPS
soluble fraction (log2): 0.169

HMPALATKDSVLDGRAEVVSYVRDTSVFYLRVRVPQKQGYRSRRIDGVSTLPEAITKALDTYMDLGT
soluble fraction (log2): -2.6

HMPALELLVESKKPLLIHGEKIAEDINLFDREKYFIDDELIRIVKEFPSLKIILEHVSSKYGAD
soluble fraction (log2): -2.18

HMPAMYKAERMNQILSILADQGDVDVGTLARQFGVSLVTIRKDLTYLESSGQLVRTHGGAIAVA
soluble fraction (log2): -0.707

HMPASVEYIRLAAEQMTGQQVTIIEQPGNYAFILRIHLNDIYSLDLAALRARIDELKPAHLTYTVEQYD
soluble fraction (log2): -2.86

HMPATTMMVVVDRDLPYGHVLTDRDVRLETRRATSPGASVAFTSIDPVLGQSLTRPLGAGTPVGRADLR
soluble fraction (log2): -0.218

HMPAVVEFDVKPRGEVLVDGIWYGRIPELREVELRPGRHHLRVQNAGHPSLDLVVTLEPGERMTVTHTFA
soluble fraction (log2): -0.529

HMPDAENFRYRVPYTTEQNRLQYYEGDIRAENADKARDQVMQDAQKYFAQNTAFTPNYIDTDIISLD
soluble fraction (log2): 0.946

HMPDFAENAVYGKQREDSLYAHAYKHFQLGDTTTVRAAEHLSAEIYPLGQHRPKFMFLNAVTR
soluble fraction (log2): 0.309

HMPDITAAVARTLQALRADRGWSLDQLAARSGVSKGVLVALEQGRSNPNLATLARIGDAFGVPVTLLVDL
soluble fraction (log2): -1.45

HMPDPHSEARNIVLNQLNFMPRSRKELETALAKRNIEADVAKIVLDRFEEIGMVDDAAYAEL
soluble fraction (log2): 0.121

HMPDPLYLINGKIVNKSDFNNIDPRSIQSIEVLKANKALEAFGNDGKNGVIKITLKSSNDQM
soluble fraction (log2): -0.104

HMPEEGPSEDGNSFTAKFKLGSDVQGAMEQADAAAKAGLQDAGKGTGQITSRAQVGGYIYSTATA
soluble fraction (log2): 0.142

HMPEIFYRKIHRTDHDQIALDAEMIRLLIAIDEKKSLSQIAAEVQMEPMALKKNLGKLIQLGLVEPIK
soluble fraction (log2): -0.616

HMPELSNNLDRDKVALKNFNESLKDGLTPAEAYANHLTNVSKAAQEAARQSNGLPVDIDKYHNSQLAASMA
soluble fraction (log2): 0.378

HMPEMAIRTLRLRNQRGAAVAAEWSRITASLLELRQVEFVNPVDQLIVLKGPEPWAGVAEELVRQLDV
soluble fraction (log2): -2.55

HMPEQLLNTRIPLEFAGRRFDASLAELFPDYSRSRLAAWIKDGAARLDGETVAPRHTVRGGEQVEILVRM
soluble fraction (log2): -0.729

HMPERLTYVHPDGAEPMRADKALAAFLSGRISRSRLLGSFSAGKVMAGGKPVEKKLLLRAGDALEVELPEP
soluble fraction (log2): -0.239

HMPERMLEPLLNGNEIMKVTQLQPGPKVGLIRDALLQAQISGDVTDTESAKAFVQDYAKRNI
soluble fraction (log2): 0.0453

HMPESETIMVDVKGAVQSEGVYELPSTARVNDAIEAAGGFSDQADKKSVNLAQKLSDEAVVYVASQGENV
soluble fraction (log2): 0.76

HMPEVTMSYSARNQVVSFSKATQYEIVDEFGTVVLRGVGNQATLRYLSRGDYFVNFGAGTEVLKK
soluble fraction (log2): -0.0464

HMPEVYSFEVNEGAAGKRLDIFLSGEIEGLTRSFIQKLISEGMATVNQEPPRASYRVKTRDLVELQIPDPE
soluble fraction (log2): -0.334

HMPFDWSAFDWKGWADEALAIIKTANQDQMNKWTEDNEKIIVQAETAAPDIYKTVGDEYDKKMESFN
soluble fraction (log2): 0.0145

HMPFESEMKHWIHLFAHELNLKVSDKYTQKIIEIFGNNFSEIFNEMSKSSLVSSNEKDLLNALEKSGNIH
soluble fraction (log2): -0.799

HMPFGIYGGKVSSLDDLKDKAAVLVPNDVSNEARALLLLEAQGLIKLKEGVGLEATRNDIVEN
soluble fraction (log2): ≥ 1.04

HMPFTLDGVNEGSRNDQAARMSGYLISKNLNMDFIKFFMQSWNRQNSPPLSQREINSVVDNVKRTHDRKNK
soluble fraction (log2): -1.88

HMPGKVSDAGATAKDNRLFLEAVFWRVRTGSPWRDLPPAFGHWNSQFRRFRRWAKAGVFESLFNA
soluble fraction (log2): 0.182

HMPGRKKLAIIYKNDYIGAFNLADSYRDSYEVSMYAFPKKVGKLLNRLELQGFNAYVIYDKDNEENNFNTI
soluble fraction (log2): -1.82

HMPGSGELSRRLELAIRDRTAVRVTAAAAGQERSFTLLPVAITSGRLRATDEQAGVQRTLPLSAIVAVEA
soluble fraction (log2): -0.179

HMPGTEAQDGEVLLDALRRIHPDSSTGTLRRMLTQGRVQVDGTTVHAAKAELTSGQHVEVVAR
soluble fraction (log2): 0.136

HMPIDIEPVLQWIRDNSIDGIGPARSMYHSAAAAAGLPSYSSLQLRKWTWPLLLDAAGVQRR
soluble fraction (log2): -0.427

HMPIRMLQVQKTNTGYLNVRDTPSVSGALIGKVFPGDMLSSTEERDGWFLVAVPQGGTGWVSGDYVKTTS
soluble fraction (log2): -0.191

HMPKAPHETLSRREMEVLLLLSEGVTLTRIGDTIHVSVKTVSTYRARILQKLDLQSNAELTRYVLQHKL
soluble fraction (log2): -5.8

HMPKHDWDAFAGAIARRVHDHGMPVSQGELVRDMMDWFAGRKDFPPPDERTVRRKVSAIWRELNG
soluble fraction (log2): -1.38

HMPKIPRLTLTETAGIMGVSQRALALAIQQGMYSWAQALPGRNKKRPIYFINAITFAKAQGIDLEEYK
soluble fraction (log2): -1.13

HMPKKLIWERTTSKLQLYITQDRYELKTPLMTIPFTSKSKMMVYLQQRYHLDMQEYRQIYDAG
soluble fraction (log2): -2.28

HMPKMDGLTVMEQVNQDHFVNKRPYFIVITAVGQEKITEDAFNKGANYYVMKPFNNNMLLERIKSVRK
soluble fraction (log2): 0.642

HMPKYLNIYHELAQRIQEGALPAETKLPSETELMQEFEASRGTVRKAIDALQEKGFVRKHQGKGVFVLSQ
soluble fraction (log2): -0.00712

HMPLDYNELRSISPKAARQAILQILAANKGNVSATAKLLGVSRKTVYKAMHKKASGNLDDTSRAPK
soluble fraction (log2): -1.74

HMPLITAIELDSISARSFQFNTQSGSTYFIEGSTDLKSWDVIAEVKATDSTTTYEDHRKIYHEAYFYRVRL
soluble fraction (log2): -1.84

HMPLITDIKIQVKNTEKVSLFVDGKYSFSLTISQLAEHKILKTNQEISAKQVAEFKKLSNLTNLYIRIVG
soluble fraction (log2): -0.305

HMPLITLSAEIQSEQIGQRLDQTLAELFPEYSRSRLKTWIEADLVKLNNQIVNIPREKVLGGEHVEITVDI
soluble fraction (log2): -1.09

HMPLNRFLNLPHEDKERVLLIAKKQFSTHGYDAMSLNLLLKELDISKGQFYYWFEDKADLFFTVL
soluble fraction (log2): -0.11

HMPLRPNQRQFIHLMVYQGLDRNEAYAQANNKVLTEENYESIRTAAAKTFYTPHVNNYYHALMEEIRDRE
soluble fraction (log2): -0.471

HMPLSVRQRMSDILSNLKTSDFTNFADLFDPKEGRTGITVTFIAILELLREFLIEVVQSDHYQPLHVRAAS
soluble fraction (log2): -0.213

HMPLTAASLQTYLRGVDYPASKQDLIAHARKSDAPEDAITVLEQYSEQTYRSAADVSAEFGS
soluble fraction (log2): 0.109

HMPLTEMAVRKHLSAELAQKGYTIDPRALEILLQRTNTNLTAIANELPKLLLVAEDKQITVNEVSAM
soluble fraction (log2): -0.319

HMPLTKKLETLFSLFPKYEKELKKKGVTRIHVWANYKEEYPDGIGRSQFIHYYSFWKKQVSP
soluble fraction (log2): -0.154

HMPLVIIRGIEGVFSSEEKAEAIRKVTDALVSVKGENVRGFAWVVFEEVKSGDWGIGGESITAEKVIMSL
soluble fraction (log2): 0.158

HMPMDDETWDALSLFAYKRYARENGWPLMIGAEALRDTFASYFPLDSSTWQDRSSHYLTYQDGIYTRT
soluble fraction (log2): -0.247

HMPMDYFELFNIPRNANRETIKKILDQEYEKYRARVVSPVLEIRHEAELMLVEISKAKQVLLG
soluble fraction (log2): -1.08

HMPMHPEDLKKLVSIEMPFGKHKGRIIADLPGNYLNWFAREGFPPGEIGRLLQLMQEIDHNGLSDLLKPLR
soluble fraction (log2): -0.521

HMPMNISDIIKQAREELGMTQEDLAERLEVSRQAVSKWELGASVPSPENLRLLEELLGVELPAP
soluble fraction (log2): -0.198

HMPNFDPSYILDFGDVIQLQLVGQKNQILEIPILRDGSVNLPDIGKIFLSGMSLEEATKIIKDTYSA
soluble fraction (log2): -0.931

HMPNGEAYQRFTYENDILEGRFEEWDSLGTDIVKGDYTAGVRHKKWLYYDSEGRRDKFVFLDMDSI
soluble fraction (log2): 0.116

HMPNNNDIVLDRVSFGYHEKEVLHGIDMTIREGTVNALVGPSGSGKSTIAKLIAGLWDVDGGSISF
soluble fraction (log2): 0.555

HMPNPSAGRVHIDALLPFDRVEVTDMQGSLLLDHSFSPRRAVDLDLNARGTLLYTLWSKGHLLGKGRVVR
soluble fraction (log2): -0.606

HMPNQLLELVEMEIRDLLNEYEFPGDDTPIIQGSALKALEDPMGPWGDKIMDLMDAVDSYIPDPE
soluble fraction (log2): -0.686

HMPPAIKTLMFMIQNKSLLKSPKQLAVVQQQLKKIKGVRDVLILLEEGKVMLKVNKHETIHEASIIRLLGG
soluble fraction (log2): -1.87

HMPPALTELLSVRTNASGTIDYLLPDRSAGLRVENGSKYSGMVPDSIYRLVAIYEIKDAKEPSAYIYTI
soluble fraction (log2): -0.0495

HMPPFDDILAEYYEPLYRHVRRMVVSHDDAKDVMQEAMLRIFQGLDGLKDPSAVRTWVWRIATNEALRH
soluble fraction (log2): -0.0914

HMPPPVDLDKKGYKLRGIVLEDGRSAAFVFVPAEKRVVVLRENASGPVRLLETGMRRIRLQTPEGAGYLEL
soluble fraction (log2): -1.36

HMPPQPATQNTKAQVMQLAREKELMAGEGRGANVEALEKFANEHGISLRGMTEEQAEQLVKLLMEYTP
soluble fraction (log2): -0.239

HMPPRFVPATGADLRRWLDVSGLTAEAAGDLLGVSGARFRQWLSRYRSAPLPDPVRALLVALLRP
soluble fraction (log2): -0.00746

HMPPSRFNELSMWFQEQLTEAGLKVDSGALKMLIEWLGQDQARLPSIIEVLVSTYGTKKKLTVDEIEPFL
soluble fraction (log2): -0.384

HMPPTSADGIEKYLASGMIRGVGPVYAKKLVSAFGDKVFDIIEAAPHQLQEVEGIGRVRAASILAAWAEQ
soluble fraction (log2): -0.549

HMPQLEDLEPLDSSGMVRRDGPHLVLAVGRHRGRHLEEVRDSDPSYLHWLLSPKGIEDIQAKEDIKTYLNL
soluble fraction (log2): -0.0235

HMPQLVGDVDGDGRVSVTDGEWIRASYGALPWYAGWRAAADLDGSRKIDVVDLELLRTKMGN
soluble fraction (log2): -0.334

HMPRIYSITINPEKIRTVIGPGGKVIKDITAKTGTKIEIDDSGKVDIFSPDEEHARMAVEIINTLTEE
soluble fraction (log2): 0.0671

HMPRKYFPFYFTFRETAQTMPPRLRAVFYEAIIEYGTTGKEPTLPKSIAGYWPLVKPTLDSAKAHYDAG
soluble fraction (log2): -3.62

HMPRNEIQRSVLNELVQWIKNNLAKKLTMQALSRFSGYSEWHLFRLFRHYFNMSPMAYIRQQRMQ
soluble fraction (log2): -0.366

HMPRPRIHSVVRGDTLYGISRQYGVAMSKLASLNGLKSPYRIMVGRSLRLPSAIEAERDRTAREVVQ
soluble fraction (log2): -1.53

HMPRVLSSYTLTLRHQPTAEAVALVRTLLSPAGSVEVKEDGRTLVVRDELAALSRIVGALRSFDH
soluble fraction (log2): -0.851

HMPRVSIEKIKKVVELLKHNPDYTYSKIGNIVGIGRKTVSGINNGKLYTDLVEELGINEFPI
soluble fraction (log2): -0.459

HMPRYQQIARQLKTAIEHGELKPGARLPSSRTWSQELGISRSTVESAYTELVAQGWLERRGQAGTFVSAQL
soluble fraction (log2): -1.04

HMPRYSGMFAAWLHKALARMGKSMSDSARSAFTERVELDYSSANNELQKLSLLVGDRKVITEADVMRAIG
soluble fraction (log2): -0.86
